Results from patent US20210047432A1 (DIACCURATE, published 2021).
Values belong to the binder of their own block, whether it stands above or below them.

B3: human FcγRIIA (H131) (receptor, UniProt P12318 34-317, looked up)
chain: QAAAPPKAVLKLEPPWINVLQEDSVTLTCQGARSPESDSIQWFHNGNLIPTHTQPSYRFKANNNDSGEYTCQTGQTSLSDPVHLTVLSEWLVLQTPHLEFQEGETIMLRCHSWKDKPLVKVTFFQNGKSQKFSHLDPTFSIPQANHSHSGDYHCTGNIGYTLFSSKPVTITVQVPSMGSSSPMGIIVAVVIATAVAAIVAAVVALIYCRKKRISANSTDPVKAAQFEPPGRQMIAIRKRQLEETNNDYETADGGYMTLNPRAPTDDDKNIYLTLPPNDHVNSNN
notes: whole, on cells; Allelic variant with His at 131 (mature numbering as printed)
B4: human FcγRIIA(R131) (receptor, UniProt P12318 34-317, looked up)
chain: QAAAPPKAVLKLEPPWINVLQEDSVTLTCQGARSPESDSIQWFHNGNLIPTHTQPSYRFKANNNDSGEYTCQTGQTSLSDPVHLTVLSEWLVLQTPHLEFQEGETIMLRCHSWKDKPLVKVTFFQNGKSQKFSRLDPTFSIPQANHSHSGDYHCTGNIGYTLFSSKPVTITVQVPSMGSSSPMGIIVAVVIATAVAAIVAAVVALIYCRKKRISANSTDPVKAAQFEPPGRQMIAIRKRQLEETNNDYETADGGYMTLNPRAPTDDDKNIYLTLPPNDHVNSNN
notes: whole, on cells; Allelic variant with Arg at 131 (so in the source)
B5: human FcγRIIIB(NA2) (receptor, UniProt O75015 17-200, looked up)
chain: GMRTEDLPKAVVFLEPQWYSVLEKDSVTLKCQGAYSPEDNSTQWFHNESLISSQASSYFIDAATVNDSGEYRCQTNLSTLSDPVQLEVHIGWLLLQAPRWVFKEEDPIHLRCHSWKNTALHKVTYLQNGKDRKYFHHNSDFHIPKATLKDSGSYFCRGLVGSKNVSSETVNITITQGLAVSTIS
notes: whole, on cells
B6: human FcγRIIIB(NA1) (receptor, UniProt O75015 17-200, looked up)
chain: GMRTEDLPKAVVFLEPQWYRVLEKDSVTLKCQGAYSPEDNSTQWFHNENLISSQASSYFIDAATVDDSGEYRCQTNLSTLSDPVQLEVHVGWLLLQAPRWVFKEEDPIHLRCHSWKNTALHKVTYLQNGKDRKYFHHNSDFHIPKATLKDSGSYFCRGLVGSKNVSSETVNITITQGLAVSTIS
notes: whole, on cells
B7: human FcγRIIIB(SH) (receptor, UniProt O75015 17-200, looked up)
chain: GMRTEDLPKAVVFLEPQWYSVLEKDSVTLKCQGAYSPEDNSTQWFHNESLISSQASSYFIDDATVNDSGEYRCQTNLSTLSDPVQLEVHIGWLLLQAPRWVFKEEDPIHLRCHSWKNTALHKVTYLQNGKDRKYFHHNSDFHIPKATLKDSGSYFCRGLVGSKNVSSETVNITITQGLAVSTIS
notes: whole, on cells

Assays:
[1] = target: T1, recombinant human sPLA2-GIB (mature secreted group IB pancreatic phospholipase A2) (human, UniProt P04054 23-148); assay: competitive ELISA: constant antibody premixed with dilutions of soluble antigen, free antibody caught on antigen-coated plate
T1 construct: also called sPLA2-IB; PLA2-GIB mature form
T1 sequence (P04054 23-148): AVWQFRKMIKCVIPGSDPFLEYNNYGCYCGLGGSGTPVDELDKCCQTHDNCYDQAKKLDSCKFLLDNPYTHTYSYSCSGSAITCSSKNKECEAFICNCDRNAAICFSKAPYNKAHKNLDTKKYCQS
Procedure: (§1) Binding affinities of the humanized antibodies to pro-sPLA2-GIB and sPLA2-GIB were measured by plate-based competition immunoassay. For the competition ELISA, briefly, constant amounts of antibody at different levels were premixed with serial dilutions of antigen protein, human sPLA2-GIB or pro-sPLA2-GIB, ranging from 0 to 10 μg/ml, and incubated for two hours at room temperature to reach pseudo-binding equilibrium between the antibody and antigen. These solutions were then transferred to 96-well sPLA2-GIB or pro-sPLA2-GIB pre-coated plates to allow the free-antibody in the mixtures to bind to plate-coated sPLA2-GIB or pro-sPLA2-GIB. The plates were typically coated with 30 to 100 ng of human sPLA2-GIB or pro-sPLA2-GIB protein in PBS solution overnight at 4° C. followed by BSA nonspecific blocking. After washing off excess antibody in solution, plate-bound antibodies were detected with an HRP-conjugated goat anti-mouse IgG or IgA polyclonal antibody reagent and developed using colorimetric substrate. The dependency of the signals on the concentrations of antigen in solution was analyzed with a 4-parameter fit analysis using Prism™ software (Graph Pad) and reported as IC50.
(§2) The respective binding affinities of the humanized antibodies to human pro-sPLA2-GIB and human sPLA2-GIB were measured by plate-based competition immunoassay. Briefly, constant amounts of antibody at different levels were premixed with serial dilutions of antigen proteins to reach pseudo-binding equilibrium between the antibody and antigen. These solutions were then transferred to antigen pre-coated plates to allow the free-antibody in the mixtures to bind to plate-coated sPLA2-GIB or pro-sPLA2-GIB. Plate-bound antibodies were detected with an HRP-conjugated polyclonal antibody. Data were fitted with a 4PL logistic non-linear regression model and the relative IC50 values were estimated from the model (Table 4).

[2] = target: T2, recombinant human pro-sPLA2-GIB (human, UniProt P04054 16-148); assay: as above
T2 construct: also called pro-sPLA2-IB; proPLA2-GIB
T2 sequence (P04054 16-148): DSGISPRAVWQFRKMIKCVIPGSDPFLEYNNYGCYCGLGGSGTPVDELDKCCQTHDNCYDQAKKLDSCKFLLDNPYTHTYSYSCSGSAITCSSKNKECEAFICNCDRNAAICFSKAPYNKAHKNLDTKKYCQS
Procedure: as §1, §2

[3] = target: T1, recombinant human sPLA2-GIB (mature …); assay: SPR (BIAcore 2000), antibody captured, antigen in solution
Procedure: (§3) The affinity constants (KD) of the pro-sPLA2-GIB and sPLA2-GIB binding to the #2B, #2B1 and #2B2 antibodies were determined by surface kinetics on a real-time biosensor surface plasmon resonance assay (BIAcore™). More specifically, the affinity of the antibodies for human pro-sPLA2-IB and sPLA2-IB was measured using a BIAcore® 2000. The antibody was captured on an anti-mouse IgG surface and exposed to various concentrations of recombinant pro-sPLA2-IB and sPLA2-IB protein. Kinetic analysis using BIAevaluation™ software was performed to obtain the association and dissociation rate constants.
as §3, with “to” for “to the #2B,”, “#2B2” for “#2B2 antibodies”, “(BIAcore™).” for “(BIAcore™). More specifically, the affinity of the antibodies for human pro-sPLA2-IB and sPLA2-IB was measured using a BIAcore® 2000.”, “constants (Table 7).” for “constants.”

[4] = target: T2, recombinant human pro-sPLA2-GIB; assay: as above
Procedure: as §3
as §3, with “to” for “to the #2B,”, “#2B2” for “#2B2 antibodies”, “(BIAcore™).” for “(BIAcore™). More specifically, the affinity of the antibodies for human pro-sPLA2-IB and sPLA2-IB was measured using a BIAcore® 2000.”, “constants (Table 7).” for “constants.”

human FcγRI = target: T3, human FcγRI (human, UniProt P12314 16-374); assay: flow cytometry, monomeric IgG on CHO cells expressing the receptor
T3 construct: whole, on cells; also called hFcγRI
T3 sequence (P12314 16-374): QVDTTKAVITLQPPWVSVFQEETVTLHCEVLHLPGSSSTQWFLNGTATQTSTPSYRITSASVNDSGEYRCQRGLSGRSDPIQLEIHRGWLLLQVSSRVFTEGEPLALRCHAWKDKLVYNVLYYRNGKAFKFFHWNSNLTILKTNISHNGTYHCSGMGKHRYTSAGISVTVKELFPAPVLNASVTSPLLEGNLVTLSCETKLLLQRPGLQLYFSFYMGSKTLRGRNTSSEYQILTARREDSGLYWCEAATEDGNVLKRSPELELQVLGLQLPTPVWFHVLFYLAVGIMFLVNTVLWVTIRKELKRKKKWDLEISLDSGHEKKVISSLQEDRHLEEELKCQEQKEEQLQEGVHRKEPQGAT
Procedure: (§4) Monomeric IgG binding was tested by incubating the #2B, #2B1 and #2B2 antibodies (100 ng/mL) with 1×10⁵ CHO cells stably expressing human FcγRs for 30 min on ice. The cells were then washed, detached, fixed, and analyzed by flow cytometry (FACSCalibur; BD Biosciences).
(§5) The binding of monomeric #2B, #2B1 and #2B2 to human FcγRs was tested by flow cytometry by incubating the mAbs with CHO cells stably expressing human FcγRI, FcγRIIA (H131), FcγRIIA(R131), FcγRIIB, FcγRIIIA(F176), FcγRIIIA(V176), FcγRIIIB(NA1), FcγRIIIB(NA2), and FcγRIIIB(SH), (REF P. Bruhns). As presented in FIG. 9, #2B is binding to hFcγRI and hFcγRIIIA(V176) only, whereas no monomeric binding of #2B1 and #2B2 to all tested hFcγRs was observed. Antibody-antigen immune complex was tested by first incubating the mAb with the antigen and then, incubating the immune complexes formed with CHO cells stably expressing human FcγRs. The immune complexe of #2B is binding to all tested hFcγRs, except hFcγRIIB (FIG. 10). Weak binding is observed for immune complex of #2B1 to hFcγRIIIA(V176) (data not shown), whereas no immune complex binding of #2B2 to any tested hFcγRs (data not shown).

human FcγRIIIA(F176) = target: T4, human FcγRIIIA(F176) (human, UniProt P08637 17-254); assay: as above
T4 construct: whole, on cells
T4 sequence (P08637 17-254): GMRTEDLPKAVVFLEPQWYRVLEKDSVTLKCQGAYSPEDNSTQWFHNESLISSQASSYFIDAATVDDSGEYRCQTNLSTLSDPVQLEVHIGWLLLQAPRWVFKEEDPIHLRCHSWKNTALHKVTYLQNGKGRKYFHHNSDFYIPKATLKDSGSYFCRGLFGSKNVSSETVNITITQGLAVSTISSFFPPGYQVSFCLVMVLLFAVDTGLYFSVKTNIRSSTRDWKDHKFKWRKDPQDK
Procedure: as §4, §5

human FcγRIIIB(NA2) = target: B5; assay: as above
Procedure: as §4, §5

human FcγRIIIB(SH) = target: B7; assay: as above
Procedure: as §4, §5

human FcγRIIA(R131) = target: B4; assay: as above
Procedure: as §4, §5

human FcγRIIA (H131) = target: B3; assay: as above
Procedure: as §4, §5

human FcγRIIB = target: T5, human FcγRIIB (human, UniProt P31994 43-310); assay: as above
T5 construct: whole, on cells; also called hFcγRIIB
T5 sequence (looked up): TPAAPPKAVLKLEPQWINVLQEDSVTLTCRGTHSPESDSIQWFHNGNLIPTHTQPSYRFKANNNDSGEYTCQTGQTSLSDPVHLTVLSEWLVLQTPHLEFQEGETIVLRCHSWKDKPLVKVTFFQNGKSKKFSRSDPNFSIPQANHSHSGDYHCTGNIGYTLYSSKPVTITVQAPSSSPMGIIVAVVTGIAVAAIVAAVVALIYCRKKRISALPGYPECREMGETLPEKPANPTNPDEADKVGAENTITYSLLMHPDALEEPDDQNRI
Procedure: as §4, §5

human FcγRIIIA(V176) = target: T6, human FcγRIIIA(V176) (human, UniProt P08637 17-254); assay: as above
T6 construct: whole, on cells; also called hFcγRIIIA(V176)
T6 sequence (P08637 17-254 F176V limits assumed): as the sequence (P08637 17-254) above, with F160V counted along it
Procedure: as §4, §5

human FcγRIIIB(NA1) = target: B6; assay: as above
Procedure: as §4, §5

[5] = target: immune complex of #2B2 with sPLA2-GIB (human, UniProt P04054 23-148); assay: flow cytometry, antibody-antigen immune complex on CHO cells expressing the receptor
immune complex of #2B2 with sPLA2-GIB, sequence (P04054 23-148, one chain of several): as the sequence (P04054 23-148) above
Procedure: Antibody-antigen immune complex were generated by co-incubation of 10 µg/ml of humanized antibodies and 5 μg/ml of sPLA2-GIB for 30 min at 37° C. Immune complexes were then incubated with 1×10⁵ CHO cells stably expressing human FcγRs for 30 min on ice. The cells were then washed, detached, fixed, and analyzed by flow cytometry (FACSCalibur; BD Biosciences).
as §5

IC50 [1]: 1.9 nM
IC50 [2]: 216 nM
B1: humanized antibody #2A (antibody, V domains shown)
VH: QVQLVQSGAEVKKPGASVKVSCKASGYTFTNYWIHWVRRAPGQGLEWIGNIDPSDTRTHYNQKFKDRATLTVDKSTSTAYMELSSLRSEDTAVYYCARQTLYYEALDYWGQGTLVTVSS
VL: EIVMTQSPATLSVSPGERATLSCKASQDVSTAVAWYQEKPGQAPRLLIYWASTRHTGIPARFSGSRSGTEYTLTISSLQSEDFAVYYCQQDYSTPPTFGGGTKVEIK
notes: CDR-grafted 14G9; version A keeps Arg H39 and Glu L38; also called Ab #2A

Kd [3]: 0.729 nM
koff [3]: 0.00203 s⁻¹
kon [3]: 2.78e+06 M⁻¹ s⁻¹
t½ [3]: 5.7 min
Kd [4]: 853 nM
koff [4]: 0.155 s⁻¹
kon [4]: 181000 M⁻¹ s⁻¹
t½ [4]: 0.074 min
binding result (human FcγRI): no binding (tested: 100 ng/mL)
binding result (human FcγRIIIA(F176)): no binding (tested: 100 ng/mL)
binding result (human FcγRIIIB(NA2)): no binding (tested: 100 ng/mL)
binding result (human FcγRIIIB(SH)): no binding (tested: 100 ng/mL)
binding result (human FcγRIIA(R131)): no binding (tested: 100 ng/mL)
binding result (human FcγRIIA (H131)): no binding (tested: 100 ng/mL)
binding result (human FcγRIIB): no binding (tested: 100 ng/mL)
binding result (human FcγRIIIA(V176)): no binding (tested: 100 ng/mL)
binding result (human FcγRIIIB(NA1)): no binding (tested: 100 ng/mL)
B2: humanized antibody #2B1 (mutations L234A & L235E) (antibody, human IgG1, kappa)
heavy: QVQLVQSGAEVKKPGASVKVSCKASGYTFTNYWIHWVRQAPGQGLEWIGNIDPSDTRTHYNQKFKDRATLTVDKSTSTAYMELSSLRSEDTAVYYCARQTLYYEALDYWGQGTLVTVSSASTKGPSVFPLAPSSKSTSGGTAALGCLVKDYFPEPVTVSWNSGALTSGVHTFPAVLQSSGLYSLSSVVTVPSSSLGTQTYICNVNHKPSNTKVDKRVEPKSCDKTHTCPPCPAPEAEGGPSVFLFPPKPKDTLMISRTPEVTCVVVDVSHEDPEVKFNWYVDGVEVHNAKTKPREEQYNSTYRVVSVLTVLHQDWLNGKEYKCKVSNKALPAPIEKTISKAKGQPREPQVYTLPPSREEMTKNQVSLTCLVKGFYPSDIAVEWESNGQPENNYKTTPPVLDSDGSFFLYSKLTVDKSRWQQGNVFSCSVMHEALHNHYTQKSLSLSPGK
light: EIVMTQSPATLSVSPGERATLSCKASQDVSTAVAWYQQKPGQAPRLLIYWASTRHTGIPARFSGSRSGTEYTLTISSLQSEDFAVYYCQQDYSTPPTFGGGTKVEIKRTVAAPSVFIFPPSDEQLKSGTASVVCLLNNFYPREAKVQWKVDNALQSGNSQESVTEQDSKDSTYSLSSTLTLSKADYEKHKVYACEVTHQGLSSPVTKSFNRGEC
notes: #2B with L234A and L235E in the heavy chain constant region; also called Ab #2B1; copies: 2 + 2

Binder: B3
binding result [5]: no binding

Binder: B4
binding result [5]: no binding

Binder: B5
binding result [5]: no binding

Binder: B6
binding result [5]: no binding

Binder: B7
binding result [5]: no binding
